According to article PMC5877952 (Proceedings of the National Academy of Sciences of the …, 2018):

Molecular target: T1, SAX-3–Flag (C. elegans, UniProt G5EBF1 24-1273)
T1 sequence (looked up): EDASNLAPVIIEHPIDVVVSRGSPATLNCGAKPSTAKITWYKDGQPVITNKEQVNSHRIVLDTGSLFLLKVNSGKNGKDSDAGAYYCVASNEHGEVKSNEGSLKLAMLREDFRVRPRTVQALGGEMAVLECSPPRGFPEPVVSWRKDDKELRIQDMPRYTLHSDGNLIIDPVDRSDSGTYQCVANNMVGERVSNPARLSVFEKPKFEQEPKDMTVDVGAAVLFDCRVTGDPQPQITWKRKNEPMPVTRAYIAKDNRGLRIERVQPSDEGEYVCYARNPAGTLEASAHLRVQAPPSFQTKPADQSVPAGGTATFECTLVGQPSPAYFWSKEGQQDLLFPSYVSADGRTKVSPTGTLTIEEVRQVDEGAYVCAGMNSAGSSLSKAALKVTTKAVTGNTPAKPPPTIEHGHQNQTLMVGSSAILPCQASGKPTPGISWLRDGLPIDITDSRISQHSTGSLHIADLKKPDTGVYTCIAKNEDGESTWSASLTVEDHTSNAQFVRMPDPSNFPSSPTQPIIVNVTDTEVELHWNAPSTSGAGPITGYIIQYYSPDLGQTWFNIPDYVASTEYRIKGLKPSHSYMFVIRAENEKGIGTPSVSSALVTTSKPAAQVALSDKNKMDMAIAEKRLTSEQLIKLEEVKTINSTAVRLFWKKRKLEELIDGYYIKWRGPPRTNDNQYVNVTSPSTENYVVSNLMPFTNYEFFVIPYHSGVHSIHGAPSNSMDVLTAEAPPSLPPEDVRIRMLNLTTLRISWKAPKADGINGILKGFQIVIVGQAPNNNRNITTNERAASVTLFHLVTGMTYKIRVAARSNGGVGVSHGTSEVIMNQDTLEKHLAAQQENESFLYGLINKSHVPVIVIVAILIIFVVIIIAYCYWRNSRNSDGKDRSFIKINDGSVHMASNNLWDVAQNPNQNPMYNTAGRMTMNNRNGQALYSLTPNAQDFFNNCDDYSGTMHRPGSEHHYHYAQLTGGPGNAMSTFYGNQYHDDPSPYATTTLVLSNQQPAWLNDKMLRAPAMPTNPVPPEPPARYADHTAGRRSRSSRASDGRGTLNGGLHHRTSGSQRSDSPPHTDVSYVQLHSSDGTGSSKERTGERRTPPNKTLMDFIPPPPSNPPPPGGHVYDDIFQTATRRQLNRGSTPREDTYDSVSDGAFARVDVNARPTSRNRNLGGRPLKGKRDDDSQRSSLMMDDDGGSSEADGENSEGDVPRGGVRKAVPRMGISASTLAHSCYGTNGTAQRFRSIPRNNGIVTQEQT
Assay: pull-down

B1: CWN-2–GST (ligand, C. elegans, UniProt P34889 38-360, looked up)
chain: AGHNVKPVCELPGLSPGQAQVCELFKDHMPAVSIGAQNAIQECQRQFTGHRWNCSTHYSTGMLGPIHKMATREAAFTYAILSAGVTHEIGRRCKQGLLTSCGCSDETKPKNVPTDWSWGGCGDNVEYGYKFSRDFIDIREKEHDPKRNHDNGRSLMNRRNNEAGRKILKRHRKPKCKCHGVSGACNMKTCWMQLPSMEQVGKILRNKYDKAIRVQINDRGNLQLLADEATKERKTRALPTDLVFMDDSPDYCRFDRHSGTLGTEGRVCKRGSGGAEGCDSLCCGRGYNTYTQEVKSKCNCKFEWCCKVVCQTCNNVTQVDICK
B1: binds.
